According to article PMC7210939, “ABCG2 transports anticancer drugs via a closed-to-open switch” (Nature Communications, 2020):

Biological target: T1, Wild-type human ABCG2 with an N-terminal GFP tag (human, UniProt Q9UNQ0)
T1 construct: ABCG2, human, wild type; also called GFP-ABCG2; WT; not shown: GFP, N-terminal, kept
Experiment: flow cytometry on cells; 5D3 antibody shift assay: stable GFP-ABCG2 HEK293F cells, 1 ug/mL 5D3 in PBS with 0.5% BSA, 37 °C 45 min, with or without MXN, SN38, imatinib or Ko143; goat-anti-mouse IgG-PE; gated on high GFP
Conditions: one partner purified

T1 sequence (Q9UNQ0 whole entry): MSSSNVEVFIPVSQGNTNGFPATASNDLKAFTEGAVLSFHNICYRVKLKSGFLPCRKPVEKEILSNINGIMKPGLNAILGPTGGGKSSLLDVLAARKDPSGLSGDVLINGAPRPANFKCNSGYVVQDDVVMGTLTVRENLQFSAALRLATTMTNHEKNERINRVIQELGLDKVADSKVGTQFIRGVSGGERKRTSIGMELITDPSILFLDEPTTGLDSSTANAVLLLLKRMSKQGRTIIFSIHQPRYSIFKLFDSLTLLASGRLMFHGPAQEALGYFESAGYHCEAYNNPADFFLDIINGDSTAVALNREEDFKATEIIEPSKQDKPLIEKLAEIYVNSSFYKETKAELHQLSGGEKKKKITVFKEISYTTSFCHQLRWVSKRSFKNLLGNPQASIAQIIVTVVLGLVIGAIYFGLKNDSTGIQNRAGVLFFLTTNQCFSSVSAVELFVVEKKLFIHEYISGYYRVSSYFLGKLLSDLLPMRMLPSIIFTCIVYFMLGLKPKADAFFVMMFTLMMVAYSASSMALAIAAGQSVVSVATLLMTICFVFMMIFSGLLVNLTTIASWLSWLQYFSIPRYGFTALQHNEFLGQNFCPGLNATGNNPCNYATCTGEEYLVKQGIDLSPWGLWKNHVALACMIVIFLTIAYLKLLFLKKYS

B1: 5D3 antibody (antibody, V domains shown)
VH: QVQLQESGPGLVKPSQSLSLTCTVTGFSITSDYAWNWIRQFPGKKLEWMGYINFDGGTTYNPSLRGRISITRDTSKNQFFLQLRSVTPEDTATYYCATFYGAKGTLDYWGQGTSVTVSS
VL: DIVLTQSPSSFSVSLGDRVTISCKASGYILNRLAWYQQKPGNAPRLLISGATSLETGFPSRFSGTGSGKDYTLSISSLQTEDVGTYYCQQYWSTPWTFGGGTKLEIR
notes: the PDB entry holds the Fab only; also called conformation specific 5D3 antibody
B1: binds.
